From patent US20230295327A1

Molecular target: IL-12 receptor of human T cells (human) (UniProt P42701)
Experiment: cell-based or functional assay

IL-12 receptor of human T cells (human), sequence (Q99665 24-862, chain 2 of 2, other chains not shown): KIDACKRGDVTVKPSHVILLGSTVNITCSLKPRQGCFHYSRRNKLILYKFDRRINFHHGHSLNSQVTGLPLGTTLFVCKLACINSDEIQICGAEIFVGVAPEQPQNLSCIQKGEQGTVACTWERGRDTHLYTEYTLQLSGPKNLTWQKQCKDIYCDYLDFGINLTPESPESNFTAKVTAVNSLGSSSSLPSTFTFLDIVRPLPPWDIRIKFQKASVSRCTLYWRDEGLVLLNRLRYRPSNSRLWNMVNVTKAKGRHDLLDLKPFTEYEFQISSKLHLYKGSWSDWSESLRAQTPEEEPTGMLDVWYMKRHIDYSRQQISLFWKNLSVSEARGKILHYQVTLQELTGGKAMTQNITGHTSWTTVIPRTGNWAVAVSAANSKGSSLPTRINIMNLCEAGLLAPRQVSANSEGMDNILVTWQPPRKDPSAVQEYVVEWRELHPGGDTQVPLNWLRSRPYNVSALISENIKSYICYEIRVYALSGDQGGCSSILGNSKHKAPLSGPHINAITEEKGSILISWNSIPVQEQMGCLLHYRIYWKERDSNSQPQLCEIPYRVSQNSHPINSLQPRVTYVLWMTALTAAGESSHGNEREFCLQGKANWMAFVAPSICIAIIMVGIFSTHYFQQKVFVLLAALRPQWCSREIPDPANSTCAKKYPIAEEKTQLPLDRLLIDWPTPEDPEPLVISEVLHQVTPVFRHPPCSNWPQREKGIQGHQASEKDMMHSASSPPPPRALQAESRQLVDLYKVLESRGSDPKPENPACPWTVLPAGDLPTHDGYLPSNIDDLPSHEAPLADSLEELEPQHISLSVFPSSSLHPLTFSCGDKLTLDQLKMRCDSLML

For “recombinant human IL-12 (from UniProt P29459 23-219; P29460 23-328) (ligand)”, the p-STAT4 (Tyr693) AlphaLISA in activated human T cells, EC50 was 0.195 ng/mL.
